Test results as given in US20140004106A1.

How the values were obtained:
[1] = biological target: 28mer peptide of the CXCR5 antigen; test: Antigen-ELISA; Citrate 10 mM pH 5.50, after mechanical stress 350 rpm 2.5 h
[2] = biological target: 28mer peptide of the CXCR5 antigen; test: Antigen-ELISA; standard run with LA_09_004_4
[3] = biological target: 28mer peptide of the CXCR5 antigen; test: Antigen-ELISA; PB 5 mM pH 6.50, T0
[4] = biological target: 28mer peptide of the CXCR5 antigen; test: Antigen-ELISA; TRIS 10 mM pH 8.5, after 1 week at +40°C
[5] = biological target: 28mer peptide of the CXCR5 antigen; test: Ag-ELISA; DS in PBS, 25°C, 1 month
[6] = biological target: 28mer peptide of the CXCR5 antigen; test: ELISA potency (binding); 100 mg/mL, Sucrose (60) + Mannitol (15), 7 days at 40°C
[7] = biological target: 28mer peptide of the CXCR5 antigen; test: Antigen-ELISA; PBS 155 mM pH 7.00, after 1 week at +40°C
[8] = biological target: 28mer peptide of the CXCR5 antigen; test: Antigen-ELISA; Acetate 10 mM pH 5.00, after 1 week at +40°C
[9] = biological target: 28mer peptide of the CXCR5 antigen; test: Antigen-ELISA; PB 10 mM pH 6.50, after 1 week at +40°C
[10] = biological target: 28mer peptide of the CXCR5 antigen; test: Antigen-ELISA; acetate 10 mM prototype C, T0
[11] = biological target: 28mer peptide of the CXCR5 antigen; test: Antigen-ELISA; Histidine 10 mM pH 6, T0
[12] = biological target: 28mer peptide of the CXCR5 antigen; test: Antigen-ELISA; PB 10 mM pH 7.00, after mechanical stress 350 rpm 2.5 h
[13] = biological target: 28mer peptide of the CXCR5 antigen; test: ELISA potency (binding); 100 mg/mL, Trehalose (60) + Mannitol (15), 7 days at 40°C
[14] = biological target: 28mer peptide of the CXCR5 antigen; test: Antigen-ELISA; PB 10 mM pH 7.50, after mechanical stress 350 rpm 2.5 h
[15] = biological target: 28mer peptide of the CXCR5 antigen; test: Antigen-ELISA; PB 10 mM pH 6.50, after mechanical stress 350 rpm 2.5 h
[16] = biological target: 28mer peptide of the CXCR5 antigen; test: ELISA potency (binding); 100 mg/mL, Lysine (30) + Mannitol (15), 7 days at 40°C
[17] = biological target: 28mer peptide of the CXCR5 antigen; test: Antigen-ELISA; standard run with LA_09_004_5
[18] = biological target: 28mer peptide of the CXCR5 antigen; test: ELISA potency (binding); 100 mg/mL, Arginine (30), T zero
[19] = biological target: 28mer peptide of the CXCR5 antigen; test: Antigen-ELISA; PBS 155 mM pH 7.00, after mechanical stress 350 rpm 2.5 h
[20] = biological target: 28mer peptide of the CXCR5 antigen; test: Potency (Antigen ELISA); stored -20°C, 9 months
[21] = biological target: 28mer peptide of the CXCR5 antigen; test: Antigen-ELISA; Glycine 10 mM pH 7, after 1 week at +40°C
[22] = biological target: 28mer peptide of the CXCR5 antigen; test: Antigen-ELISA; PBS 155 mM pH 7.50, T0
[23] = biological target: 28mer peptide of the CXCR5 antigen; test: Antigen-ELISA; standard run with LA_09_004_8
[24] = biological target: 28mer peptide of the CXCR5 antigen; test: ELISA potency (binding); 100 mg/mL, Lysine (30) + NaCl (2), T zero
[25] = biological target: 28mer peptide of the CXCR5 antigen; test: Ag-ELISA; DS in PBS, -20°C, 1 month
[26] = biological target: 28mer peptide of the CXCR5 antigen; test: Antigen-ELISA; standard run with LA_09_28C, T0
[27] = biological target: 28mer peptide of the CXCR5 antigen; test: Potency (Antigen ELISA); stored +5°C, 9 months
[28] = biological target: 28mer peptide of the CXCR5 antigen; test: Antigen-ELISA; PB 10 mM pH 7.00, T0
[29] = biological target: 28mer peptide of the CXCR5 antigen; test: Antigen-ELISA; standard run with LA_09_004_10
[30] = biological target: 28mer peptide of the CXCR5 antigen; test: Antigen-ELISA; Arginine 10 mM pH 6, T0
[31] = biological target: 28mer peptide of the CXCR5 antigen; test: Antigen-ELISA; TRIS 10 mM pH 7.5, T0
[32] = biological target: 28mer peptide of the CXCR5 antigen; test: Antigen-ELISA; standard run with LA_09_27A, T0
[33] = biological target: 28mer peptide of the CXCR5 antigen; test: Antigen-ELISA; PBS 155 mM pH 6.50, T0
[34] = biological target: 28mer peptide of the CXCR5 antigen; test: Antigen-ELISA; standard run with LA_09_29D, T0
[35] = biological target: 28mer peptide of the CXCR5 antigen; test: Antigen-ELISA; PB 5 mM pH 7.00, T0
[36] = biological target: 28mer peptide of the CXCR5 antigen; test: Potency (Antigen ELISA); stored +25°C, 6 months
[37] = biological target: 28mer peptide of the CXCR5 antigen; test: Antigen-ELISA; Histidine 10 mM pH 5.5, T0
[38] = biological target: 28mer peptide of the CXCR5 antigen; test: Antigen-ELISA; Citrate 10 mM pH 6.00, after mechanical stress 350 rpm 2.5 h
[39] = biological target: 28mer peptide of the CXCR5 antigen; test: Antigen-ELISA; acetate 10 mM prototype A, repeated values in the 3 weeks -20°C
[40] = biological target: 28mer peptide of the CXCR5 antigen; test: Antigen-ELISA; standard run with LA_09_28A, T0
[41] = biological target: 28mer peptide of the CXCR5 antigen; test: ELISA potency (binding); 100 mg/mL, Arginine (20) + Mannitol (15), T zero
[42] = biological target: 28mer peptide of the CXCR5 antigen; test: Potency (Antigen ELISA); stored +5°C, 1 month
[43] = biological target: 28mer peptide of the CXCR5 antigen; test: Antigen-ELISA; standard run with LA_09_004_1

B1: Lead CXCR5 Antibody (humanized IgG4 anti-CXCR5 antibody) (antibody, V domains shown)
VH: QVQLKESGPGLVAPSESLSITCTVSGFSLIDYGVNWIRQPPGKGLEWLGVIWGDGTTYYNPSLKSRLSISKDNSKSQVFLKVTSLTTDDTAMYYCARIVYWGQGTLVTVSA
VL: DIVMTQAAPSVAVTPGASVSISCRSSKSLLHSSGKTYLYWFLQRPGQSPQLLIYRLSSLASGVPDRFSGSGSGTAFTLRISRVEAEDVGVYYCMQHLEYPYTFGGGTKLEIKR
- EC50 % [1]: 79%
- EC50 % [2]: 100%
- EC50 % [3]: 110%
- EC50 % [4]: 237%
- EC50 % [5]: 106%
- rel. potency [%] [6]: 243%
- EC50 % [7]: 97%
- EC50 % [8]: 102%
- EC50 % [9]: 78.8%
- EC50 % [10]: 142%
- EC50 % [11]: 184%
- EC50 % [12]: 61.4%
- rel. potency [%] [13]: 266%
- EC50 % [14]: 60.9%
- EC50 % [15]: 89.4%
- rel. potency [%] [16]: 297%
- EC50 % [17]: 100%
- rel. potency [%] [18]: 160%
- EC50 % [19]: 50%
- EC50 value (in comparison to reference) [20]: 101%
- EC50 % [21]: 65%
- EC50 % [22]: 81%
- EC50 % [23]: 100%
- rel. potency [%] [24]: 130%
- EC50 % [25]: 132%
- EC50 % [26]: 100%
- EC50 value (in comparison to reference) [27]: 92%
- EC50 % [28]: 145%
- EC50 % [29]: 100%
- EC50 % [30]: 114%
- EC50 % [31]: 104%
- EC50 % [32]: 100%
- EC50 % [33]: 139%
- EC50 % [34]: 100%
- EC50 % [35]: 68%
- EC50 value (in comparison to reference) [36]: 104%
- EC50 % [37]: 57%
- EC50 % [38]: 136%
- EC50 % [39]: 112%
- EC50 % [40]: 100%
- rel. potency [%] [41]: 117%
- EC50 value (in comparison to reference) [42]: 105%
- EC50 % [43]: 100%
